# T1: human GDF15 receptor (GFRAL) stably over-expressed on SK-N-AS cells (human, UniProt Q6UXV0 19-394)
# T1 sequence (looked up): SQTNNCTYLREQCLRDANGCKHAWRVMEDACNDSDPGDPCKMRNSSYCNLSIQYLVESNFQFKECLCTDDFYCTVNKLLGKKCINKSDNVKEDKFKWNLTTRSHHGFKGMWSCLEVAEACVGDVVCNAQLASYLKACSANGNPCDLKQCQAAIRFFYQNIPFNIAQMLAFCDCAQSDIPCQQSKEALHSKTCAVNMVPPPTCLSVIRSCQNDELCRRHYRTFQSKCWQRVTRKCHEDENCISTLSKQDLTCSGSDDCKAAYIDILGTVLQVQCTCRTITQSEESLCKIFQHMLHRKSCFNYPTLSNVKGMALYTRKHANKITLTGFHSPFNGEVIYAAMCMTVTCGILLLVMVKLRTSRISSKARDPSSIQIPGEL
# Biological target: T1, human GDF15 receptor (GFRAL) stably …
# Test: cell-based or functional assay
binder,measurement,value
"Native GDF15 (ligand, UniProt Q99988 197-308, looked up) ARNGDHCPLGPGRCCRLHTVRASLEDLGWADWVLSPREVQVTMCIGACPSQFRAANMHAQIKTSLHRLKPDTVPAPCCVPASYNPMVLIQKTDTGVSLQTYDDLLAKDCHCI","EC50, cell-based pAKT (phospho-AKT Ser473) assay",0.153 nM
